Publication PMC11272584 (Nature Metabolism, 2024)
One block for each molecule: values may come before it.

Experiments:
GIPR I299V = target: T1, GIPR I299V (Homo sapiens, UniProt P48546, I299V); experiment: cAMP accumulation; type: cell-based
T1 construct: host or cells: HEK293
T1 sequence (P48546 22-466 I299V): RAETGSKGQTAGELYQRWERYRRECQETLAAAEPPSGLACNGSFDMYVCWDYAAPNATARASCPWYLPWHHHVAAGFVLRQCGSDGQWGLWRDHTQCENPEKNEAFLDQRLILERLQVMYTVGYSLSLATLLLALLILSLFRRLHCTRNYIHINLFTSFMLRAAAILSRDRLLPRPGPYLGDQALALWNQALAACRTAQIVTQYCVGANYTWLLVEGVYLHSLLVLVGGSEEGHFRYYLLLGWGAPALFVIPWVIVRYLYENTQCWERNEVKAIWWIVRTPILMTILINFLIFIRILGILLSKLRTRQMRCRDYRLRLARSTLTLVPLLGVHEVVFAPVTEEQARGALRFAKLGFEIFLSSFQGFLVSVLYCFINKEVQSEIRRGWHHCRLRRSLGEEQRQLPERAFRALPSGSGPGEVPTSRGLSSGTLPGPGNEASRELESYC
Description: (§1) HEK293 (CRL-1573, American Type Culture Collection) and β-arrestin 1/2 knockout cells, generated from HEK293A[48], were used for cAMP measurement, homologues competition binding and β-arrestin 2 recruitment. […] Both cell lines were cultured at 5% CO2 at 37 °C in Roswell Park Memorial Institute GlutaMAX-I supplemented with 10% fetal bovine serum, 180 units ml^−1 penicillin, and 45 g ml^−1 streptomycin. For the cAMP and binding experiments, cells were transfected with the calcium phosphate precipitation method[49].
(§2) cAMP production was measured with the DiscoverX Hithunter cAMP assay according to the manufacturer’s protocol (DiscoverX). […] On the day of the assay, the cells were washed twice with HEPES-buffered saline (HBS) and incubated with HBS and 1 mM 3-isobutyl-1-methylxanthine for 30 min at 37 °C. […] After the incubation, the assay medium was removed from the plate and the cells were washed with 30 µl PBS and treated with 40 µl enzyme donor–lysis buffer–chemiluminescent reagents and 10 µl cAMP antibodies for 60 min before 40 µl enzyme acceptor solution added. After a 3-h incubation on a shaking table in the dark, the cAMP accumulation was measured based on luminescence with a Perkin Elmer EnVision 2104 Multilabel Microplate Reader. […]

GIPR variants (groups) [1] = experiment: cAMP accumulation; type: cell-based, human; details: for In vitro groups (cAMP): cAMP part of the in vitro group; for percentage_camp: cAMP production compared with WT; for Beta, cAMP: in vitro cAMP production per GIPR variant
GIPR variants (groups) [2] = experiment: β-arrestin 2 recruitment (BRET); details: for In vitro groups (β-arrestin): arr part of the in vitro group; for Beta, Barr: in vitro β-arrestin recruitment per GIPR variant;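 as to all read-outs here: BRET readout of β-arrestin 2 recruitment in transiently transfected HEK293 cells expressing WT GIPR or a GIPR variant plus GPCR kinase 2, Rluc8 donor and citrine acceptor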
Description: Both cell lines were cultured at 5% CO2 at 37 °C in Roswell Park Memorial Institute GlutaMAX-I supplemented with 10% fetal bovine serum, 180 units ml^−1 penicillin, and 45 g ml^−1 streptomycin. […] The polyethyleneimine (PEI) transfection method was used for the β-arrestin 2 recruitment assays[50], endosomal signalling and basal receptor localization assays, while the lipofectamine transfection method was used for the internalization assay.
Measurement of β-arrestin 2 recruitment was performed with a BRET assay. Two days before the assay, the HEK293 cells were transiently transfected with either WT GIPR or the GIPR variants together with the donor Rluc8-Arrestin-3-Sp1, the acceptor mem-linker-citrine-SH3 and the GPCR kinase 2 to facilitate β-arrestin 2 recruitment. On assay day, the cells were washed with PBS and resuspended in PBS supplemented with 5 mmol l^−1 glucose. Subsequently, 85 µl of the cell suspension was transferred to a white 96-well plate and 10 µl of 50 µM coelenterazine-h was added.

GIPR R336P = target: T2, GIPR R336P (Homo sapiens, UniProt P48546, R336P); experiment: cAMP accumulation; type: cell-based
T2 construct: host or cells: HEK293
T2 sequence (P48546 22-466 R336P): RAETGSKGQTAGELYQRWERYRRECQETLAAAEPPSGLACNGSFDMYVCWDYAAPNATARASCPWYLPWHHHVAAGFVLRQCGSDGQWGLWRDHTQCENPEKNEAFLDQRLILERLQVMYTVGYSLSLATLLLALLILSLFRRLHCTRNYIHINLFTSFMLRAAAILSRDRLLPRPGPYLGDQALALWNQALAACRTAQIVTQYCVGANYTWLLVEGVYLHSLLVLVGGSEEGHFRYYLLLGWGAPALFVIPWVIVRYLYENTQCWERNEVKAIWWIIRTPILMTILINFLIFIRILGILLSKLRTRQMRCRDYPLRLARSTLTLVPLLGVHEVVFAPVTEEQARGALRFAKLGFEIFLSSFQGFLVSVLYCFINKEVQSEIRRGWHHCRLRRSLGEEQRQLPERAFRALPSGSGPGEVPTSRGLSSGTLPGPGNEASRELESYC
Description: as §1, §2

GIPR R300W = target: T3, GIPR R300W (Homo sapiens, UniProt P48546, R300W); experiment: cAMP accumulation; type: cell-based
T3 construct: host or cells: HEK293
T3 sequence (P48546 22-466 R300W): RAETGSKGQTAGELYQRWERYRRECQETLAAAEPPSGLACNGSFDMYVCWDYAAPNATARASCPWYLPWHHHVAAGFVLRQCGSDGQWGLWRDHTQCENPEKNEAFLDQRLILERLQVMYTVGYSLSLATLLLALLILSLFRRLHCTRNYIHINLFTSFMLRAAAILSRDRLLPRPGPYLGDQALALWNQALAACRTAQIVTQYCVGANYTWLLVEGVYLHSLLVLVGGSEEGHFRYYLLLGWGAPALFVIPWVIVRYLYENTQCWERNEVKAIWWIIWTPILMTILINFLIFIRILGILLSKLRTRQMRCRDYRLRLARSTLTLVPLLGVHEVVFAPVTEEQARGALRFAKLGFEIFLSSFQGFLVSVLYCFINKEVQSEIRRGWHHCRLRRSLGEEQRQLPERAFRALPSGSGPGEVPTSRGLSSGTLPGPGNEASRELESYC
Description: as §1, §2

GIPR L304R = target: T4, GIPR L304R (Homo sapiens, UniProt P48546, L304R); experiment: cAMP accumulation; type: cell-based
T4 construct: host or cells: HEK293
T4 sequence (P48546 22-466 L304R): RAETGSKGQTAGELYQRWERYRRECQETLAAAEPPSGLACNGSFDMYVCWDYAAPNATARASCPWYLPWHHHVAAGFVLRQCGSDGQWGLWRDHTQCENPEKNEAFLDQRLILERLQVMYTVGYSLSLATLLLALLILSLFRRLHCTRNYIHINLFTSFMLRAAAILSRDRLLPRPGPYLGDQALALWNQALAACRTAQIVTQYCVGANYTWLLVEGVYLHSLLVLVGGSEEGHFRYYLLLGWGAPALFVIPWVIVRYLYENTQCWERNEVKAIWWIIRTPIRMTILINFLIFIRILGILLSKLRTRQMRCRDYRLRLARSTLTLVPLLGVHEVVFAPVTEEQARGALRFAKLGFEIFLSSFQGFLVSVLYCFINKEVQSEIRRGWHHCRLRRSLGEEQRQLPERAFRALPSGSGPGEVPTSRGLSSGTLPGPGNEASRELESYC
Description: as §1, §2

GIPR E354Q = target: T5, GIPR E354Q (Homo sapiens, UniProt P48546, E354Q); experiment: cAMP accumulation; type: cell-based
T5 construct: host or cells: HEK293
T5 sequence (P48546 22-466 E354Q): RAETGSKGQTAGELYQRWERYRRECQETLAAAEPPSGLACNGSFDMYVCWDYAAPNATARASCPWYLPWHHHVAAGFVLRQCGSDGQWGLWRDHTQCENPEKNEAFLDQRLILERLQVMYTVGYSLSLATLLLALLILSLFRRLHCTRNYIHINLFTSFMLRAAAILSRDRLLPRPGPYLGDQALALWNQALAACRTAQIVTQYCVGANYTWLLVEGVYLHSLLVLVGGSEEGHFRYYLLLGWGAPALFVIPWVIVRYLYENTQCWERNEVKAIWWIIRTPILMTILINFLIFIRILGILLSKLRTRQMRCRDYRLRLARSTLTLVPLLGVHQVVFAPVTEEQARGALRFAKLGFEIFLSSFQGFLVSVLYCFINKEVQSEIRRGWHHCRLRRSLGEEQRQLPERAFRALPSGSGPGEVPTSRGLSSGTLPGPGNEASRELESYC
Description: as §1, §2

- Efficacy at 100pmol (cAMP) (GIPR I299V): 1.005
B1: I299V (protein)
chain: RAETGSKGQTAGELYQRWERYRRECQETLAAAEPPSGLACNGSFDMYVCWDYAAPNATARASCPWYLPWHHHVAAGFVLRQCGSDGQWGLWRDHTQCENPEKNEAFLDQRLILERLQVMYTVGYSLSLATLLLALLILSLFRRLHCTRNYIHINLFTSFMLRAAAILSRDRLLPRPGPYLGDQALALWNQALAACRTAQIVTQYCVGANYTWLLVEGVYLHSLLVLVGGSEEGHFRYYLLLGWGAPALFVIPWVIVRYLYENTQCWERNEVKAIWWIVRTPILMTILINFLIFIRILGILLSKLRTRQMRCRDYRLRLARSTLTLVPLLGVHEVVFAPVTEEQARGALRFAKLGFEIFLSSFQGFLVSVLYCFINKEVQSEIRRGWHHCRLRRSLGEEQRQLPERAFRALPSGSGPGEVPTSRGLSSGTLPGPGNEASRELESYC
- In vitro groups (cAMP) (GIPR variants (groups) [1]): WT-like_camp
- percentage_camp (GIPR variants (groups) [1]): >50% cAMP
- Beta, cAMP (GIPR variants (groups) [1]): 1.005
- In vitro groups (β-arrestin) (GIPR variants (groups) [2]): WT-like_arr
- Beta, Barr (GIPR variants (groups) [2]): 0.7578

- Efficacy at 100pmol (cAMP) (GIPR R336P): 0.3193
B2: R336P (protein)
chain: RAETGSKGQTAGELYQRWERYRRECQETLAAAEPPSGLACNGSFDMYVCWDYAAPNATARASCPWYLPWHHHVAAGFVLRQCGSDGQWGLWRDHTQCENPEKNEAFLDQRLILERLQVMYTVGYSLSLATLLLALLILSLFRRLHCTRNYIHINLFTSFMLRAAAILSRDRLLPRPGPYLGDQALALWNQALAACRTAQIVTQYCVGANYTWLLVEGVYLHSLLVLVGGSEEGHFRYYLLLGWGAPALFVIPWVIVRYLYENTQCWERNEVKAIWWIIRTPILMTILINFLIFIRILGILLSKLRTRQMRCRDYPLRLARSTLTLVPLLGVHEVVFAPVTEEQARGALRFAKLGFEIFLSSFQGFLVSVLYCFINKEVQSEIRRGWHHCRLRRSLGEEQRQLPERAFRALPSGSGPGEVPTSRGLSSGTLPGPGNEASRELESYC
- In vitro groups (cAMP) (GIPR variants (groups) [1]): LoF_camp
- percentage_camp (GIPR variants (groups) [1]): <50% cAMP
- Beta, cAMP (GIPR variants (groups) [1]): 0.3193
- In vitro groups (β-arrestin) (GIPR variants (groups) [2]): LoF_arr
- Beta, Barr (GIPR variants (groups) [2]): 0.2102

- Efficacy at 100pmol (cAMP) (GIPR R300W): 0.0005276
B3: R300W (protein)
chain: RAETGSKGQTAGELYQRWERYRRECQETLAAAEPPSGLACNGSFDMYVCWDYAAPNATARASCPWYLPWHHHVAAGFVLRQCGSDGQWGLWRDHTQCENPEKNEAFLDQRLILERLQVMYTVGYSLSLATLLLALLILSLFRRLHCTRNYIHINLFTSFMLRAAAILSRDRLLPRPGPYLGDQALALWNQALAACRTAQIVTQYCVGANYTWLLVEGVYLHSLLVLVGGSEEGHFRYYLLLGWGAPALFVIPWVIVRYLYENTQCWERNEVKAIWWIIWTPILMTILINFLIFIRILGILLSKLRTRQMRCRDYRLRLARSTLTLVPLLGVHEVVFAPVTEEQARGALRFAKLGFEIFLSSFQGFLVSVLYCFINKEVQSEIRRGWHHCRLRRSLGEEQRQLPERAFRALPSGSGPGEVPTSRGLSSGTLPGPGNEASRELESYC
- In vitro groups (cAMP) (GIPR variants (groups) [1]): LoF_camp
- percentage_camp (GIPR variants (groups) [1]): <50% cAMP
- Beta, cAMP (GIPR variants (groups) [1]): 0
- In vitro groups (β-arrestin) (GIPR variants (groups) [2]): LoF_arr
- Beta, Barr (GIPR variants (groups) [2]): 0

- Efficacy at 100pmol (cAMP) (GIPR L304R): 0.2373
B4: L304R (protein)
chain: RAETGSKGQTAGELYQRWERYRRECQETLAAAEPPSGLACNGSFDMYVCWDYAAPNATARASCPWYLPWHHHVAAGFVLRQCGSDGQWGLWRDHTQCENPEKNEAFLDQRLILERLQVMYTVGYSLSLATLLLALLILSLFRRLHCTRNYIHINLFTSFMLRAAAILSRDRLLPRPGPYLGDQALALWNQALAACRTAQIVTQYCVGANYTWLLVEGVYLHSLLVLVGGSEEGHFRYYLLLGWGAPALFVIPWVIVRYLYENTQCWERNEVKAIWWIIRTPIRMTILINFLIFIRILGILLSKLRTRQMRCRDYRLRLARSTLTLVPLLGVHEVVFAPVTEEQARGALRFAKLGFEIFLSSFQGFLVSVLYCFINKEVQSEIRRGWHHCRLRRSLGEEQRQLPERAFRALPSGSGPGEVPTSRGLSSGTLPGPGNEASRELESYC
- In vitro groups (cAMP) (GIPR variants (groups) [1]): LoF_camp
- percentage_camp (GIPR variants (groups) [1]): <50% cAMP
- Beta, cAMP (GIPR variants (groups) [1]): 0.2373
- In vitro groups (β-arrestin) (GIPR variants (groups) [2]): LoF_arr
- Beta, Barr (GIPR variants (groups) [2]): 0.1329

- Efficacy at 100pmol (cAMP) (GIPR E354Q): 1.125
B5: E354Q (protein)
chain: RAETGSKGQTAGELYQRWERYRRECQETLAAAEPPSGLACNGSFDMYVCWDYAAPNATARASCPWYLPWHHHVAAGFVLRQCGSDGQWGLWRDHTQCENPEKNEAFLDQRLILERLQVMYTVGYSLSLATLLLALLILSLFRRLHCTRNYIHINLFTSFMLRAAAILSRDRLLPRPGPYLGDQALALWNQALAACRTAQIVTQYCVGANYTWLLVEGVYLHSLLVLVGGSEEGHFRYYLLLGWGAPALFVIPWVIVRYLYENTQCWERNEVKAIWWIIRTPILMTILINFLIFIRILGILLSKLRTRQMRCRDYRLRLARSTLTLVPLLGVHQVVFAPVTEEQARGALRFAKLGFEIFLSSFQGFLVSVLYCFINKEVQSEIRRGWHHCRLRRSLGEEQRQLPERAFRALPSGSGPGEVPTSRGLSSGTLPGPGNEASRELESYC
- In vitro groups (cAMP) (GIPR variants (groups) [1]): WT-like_camp
- percentage_camp (GIPR variants (groups) [1]): >50% cAMP
- Beta, cAMP (GIPR variants (groups) [1]): 1.125
- In vitro groups (β-arrestin) (GIPR variants (groups) [2]): WT-like_arr
- Beta, Barr (GIPR variants (groups) [2]): 0.9822
